B1: Azoarcus group I ribozyme (parent)
chain: GUGCCUUGCGCCGGGAAACCACGCAAGGGAUGGUGUCAAAUUCGGCGAAACCUAAGCGCCCGCCCGGGCGUAUGGCAACGCCGAGCCAAGCUUCGGCGCCUGCGCCGAUGAAGGUGUAGAGACUAGACGGCACCCACCUAAGGCAAACGCUAUGGUGAAGGCAUAGUCCAGGGAGUGGCGAAAGUCACACAAACCGG

Variants of: B1
Assay: reverse-splicing fitness (ratio to wild type); higher = more active; in vitro selection; Mg2+ level not given
In short: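 An in vitro group I ribozyme library with randomized positions was T7-transcribed and gel-purified. In triplicate, 10 pmol RNA in EPPS pH 7.5 was reacted with 50 pmoles of a 30-nt RNA substrate for 1 h at 37 °C across several added MgCl2 levels (1–48 mM), then stopped with EDTA. Products were reverse transcribed from a substrate-complementary primer, PCR-amplified and sequenced (HiSeq 4000). Fitness is a variant's read proportion after selection over that before, normalised to wild type.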

Variant | reverse-splicing fitness
GUGCCUUGCGCCGGGAAACCACGCAAGGGAUGGUGUCAAAUUCGGCGAAACCUAAGCGCCCGCCCGGGCGUAUGGCAACGCGGAGCCAAGCUUCGGCGCCUGCGCCGAUGCAGGUGUAGAGACUAGACGGCACCCACCUAAGGCCAACGGUAUGGUGAAGGCAUAGUCGAGGGAGCGGCGAAAGUCACACAAACCGG [C82G A111C A145C C150G C169G U176C] | 0.0101
GUGCCUUGCGCCGGGAAACCACGCAAGGGAUGGUGUCAAAUUCGGCGAAACCUAAGCGCCCGCCCGGGCGUAUGGCAACGCGGAGCCAAGCUUCGGCGCCUGCGCCGAUGCAGGUGUAGAGACUAGACGGCACCCACCUAAGGCCAACGGUAUGGUGAAGGCAUAGUCGAGGGAGAGGCGAAAGUCACACAAACCGG [C82G A111C A145C C150G C169G U176A] | 0.00893
GUGCCUUGCGCCGGGAAACCACGCAAGGGAUGGUGUCAAAUUCGGCGAAACCUAAGCGCCCGCCCGGGCGUAUGGCAACGCGGAGCCAAGCUUCGGCGCCUGCGCCGAUGCAGGUGUAGAGACUAGACGGCACCCACCUAAGGCCAACGGUAUGGUGAAGGCAUAGUCGAGGGAGGGGCGAAAGUCACACAAACCGG [C82G A111C A145C C150G C169G U176G] | 0.00664
GUGCCUUGCGCCGGGAAACCACGCAAGGGAUGGUGUCAAAUUCGGCGAAACCUAAGCGCCCGCCCGGGCGUAUGGCAACGCGGAGCCAAGCUUCGGCGCCUGCGCCGAUGCAGGUGUAGAGACUAGACGGCACCCACCUAAGGCCAACGGUAUGGUGAAGGCAUAGUCAAGGGAGUGGCGAAAGUCACACAAACCGG [C82G A111C A145C C150G C169A] | 0.00941
GUGCCUUGCGCCGGGAAACCACGCAAGGGAUGGUGUCAAAUUCGGCGAAACCUAAGCGCCCGCCCGGGCGUAUGGCAACGCGGAGCCAAGCUUCGGCGCCUGCGCCGAUGCAGGUGUAGAGACUAGACGGCACCCACCUAAGGCCAACGGUAUGGUGAAGGCAUAGUCUAGGGAGUGGCGAAAGUCACACAAACCGG [C82G A111C A145C C150G C169U] | 0.00892
GUGCCUUGCGCCGGGAAACCACGCAAGGGAUGGUGUCAAAUUCGGCGAAACCUAAGCGCCCGCCCGGGCGUAUGGCAACGCGGAGCCAAGCUUCGGCGCCUGCGCCGAUGCAGGUGUAGAGACUAGACGGCACCCACCUAAGGCCAACGGUAUGGUGAAGGCAUAGUCGAGGGAGUGGCGAAAGUCACACAAACCGG [C82G A111C A145C C150G C169G] | 0.00675
GUGCCUUGCGCCGGGAAACCACGCAAGGGAUGGUGUCAAAUUCGGCGAAACCUAAGCGCCCGCCCGGGCGUAUGGCAACGCGGAGCCAAGCUUCGGCGCCUGCGCCGAUGCAGGUGUAGAGACUAGACGGCACCCACCUAAGGCCAACGGUAUGGUGAAGGCAUAGUCAAGGGAGCGGCGAAAGUCACACAAACCGG [C82G A111C A145C C150G C169A U176C] | 0.00828
GUGCCUUGCGCCGGGAAACCACGCAAGGGAUGGUGUCAAAUUCGGCGAAACCUAAGCGCCCGCCCGGGCGUAUGGCAACGCGGAGCCAAGCUUCGGCGCCUGCGCCGAUGCAGGUGUAGAGACUAGACGGCACCCACCUAAGGCCAACGGUAUGGUGAAGGCAUAGUCAAGGGAGAGGCGAAAGUCACACAAACCGG [C82G A111C A145C C150G C169A U176A] | 0.00825
GUGCCUUGCGCCGGGAAACCACGCAAGGGAUGGUGUCAAAUUCGGCGAAACCUAAGCGCCCGCCCGGGCGUAUGGCAACGCGGAGCCAAGCUUCGGCGCCUGCGCCGAUGCAGGUGUAGAGACUAGACGGCACCCACCUAAGGCCAACGGUAUGGUGAAGGCAUAGUCAAGGGAGGGGCGAAAGUCACACAAACCGG [C82G A111C A145C C150G C169A U176G] | 0.00732
GUGCCUUGCGCCGGGAAACCACGCAAGGGAUGGUGUCAAAUUCGGCGAAACCUAAGCGCCCGCCCGGGCGUAUGGCAACGCGGAGCCAAGCUUCGGCGCCUGCGCCGAUGCAGGUGUAGAGACUAGACGGCACCCACCUAAGGCCAACGGUAUGGUGAAGGCAUAGUCUAGGGAGGGGCGAAAGUCACACAAACCGG [C82G A111C A145C C150G C169U U176G] | 0.0071
GUGCCUUGCGCCGGGAAACCACGCAAGGGAUGGUGUCAAAUUCGGCGAAACCUAAGCGCCCGCCCGGGCGUAUGGCAACGCGGAGCCAAGCUUCGGCGCCUGCGCCGAUGCAGGUGUAGAGACUAGACGGCACCCACCUAAGGCCAACGGUAUGGUGAAGGCAUAGUCUAGGGAGAGGCGAAAGUCACACAAACCGG [C82G A111C A145C C150G C169U U176A] | 0.00717
GUGCCUUGCGCCGGGAAACCACGCAAGGGAUGGUGUCAAAUUCGGCGAAACCUAAGCGCCCGCCCGGGCGUAUGGCAACGCGGAGCCAAGCUUCGGCGCCUGCGCCGAUGCAGGUGUAGAGACUAGACGGCACCCACCUAAGGCCAACGGUAUGGUGAAGGCAUAGUCUAGGGAGCGGCGAAAGUCACACAAACCGG [C82G A111C A145C C150G C169U U176C] | 0.0102
GUGCCUUGCGCCGGGAAACCACGCAAGGGAUGGUGUCAAAUUCGGCGAAACCUAAGCGCCCGCCCGGGCGUAUGGCAACGCGGAGCCAAGCUUCGGCGCCUGCGCCGAUGCAGGUGUAGAGACUAGACGGCACCCACCUAAGGCCAACGAUAUGGUGAAGGCAUAGUCUAGGGAGAGGCGAAAGUCACACAAACCGG [C82G A111C A145C C150A C169U U176A] | 0.0135
GUGCCUUGCGCCGGGAAACCACGCAAGGGAUGGUGUCAAAUUCGGCGAAACCUAAGCGCCCGCCCGGGCGUAUGGCAACGCGGAGCCAAGCUUCGGCGCCUGCGCCGAUGCAGGUGUAGAGACUAGACGGCACCCACCUAAGGCCAACGAUAUGGUGAAGGCAUAGUCUAGGGAGGGGCGAAAGUCACACAAACCGG [C82G A111C A145C C150A C169U U176G] | 0.0092
GUGCCUUGCGCCGGGAAACCACGCAAGGGAUGGUGUCAAAUUCGGCGAAACCUAAGCGCCCGCCCGGGCGUAUGGCAACGCGGAGCCAAGCUUCGGCGCCUGCGCCGAUGCAGGUGUAGAGACUAGACGGCACCCACCUAAGGCCAACGAUAUGGUGAAGGCAUAGUCUAGGGAGCGGCGAAAGUCACACAAACCGG [C82G A111C A145C C150A C169U U176C] | 0.0122

— the RNAGym collection of RNA variant scans (doi:10.1093/molbev/msab373)
